The labels stand for the following.
B1: PR006008 (antibody, IgG1, V domains shown)
VH: EVQLVESGGGLVQPGGSLRLSCAASGFTFTDFWMHWVRQVPGKGREWVSRISPDGSSTSYEDSVKGRFTISRDNAKNTVYLQMHGLRAEDTAVYYCTRFSTGWHRIEYFQHWGQGTLVTVSS
notes: also called R7004M6D4; anti-human B7-H4 HCAb monoclonal antibody
B2: PR006004 (antibody, V domains shown)
VH: EVQLVESGGGLVQPGGSLRLSCAASGFAFSNYWMHWARQVPGKGRVWISRISGDGRSTSYADSVKGRFTISRDNAKNMVYLQMNNLRAEDTAVYYCARDRFGDDYYYGMNVWGQGTTVTVSS
notes: also called R7004M1A2; anti-human B7-H4 HCAb monoclonal antibody
B3: PR007440 (antibody, IgG1, V domains shown)
VH: B2 VH with G55S
notes: also called PTM variant (G55S) of PR006004
B4: PR007441 (antibody, IgG1, V domains shown)
VH: B1 VH with G55S
notes: also called PTM variant (G55S) of PR006008
B5: PR007200 (antibody, IgG1, V domains shown)
VH: B2 VH with V46E, G55S, R56S
notes: also called charge variant of PR006004 (V46E, G55S, R56S)
B6: PR007202 (antibody, IgG1, V domains shown)
VH: B2 VH with V46E, G55S, R56T
notes: also called charge variant of PR006004 (V46E, G55S, R56T)
B7: PR007196 (antibody, IgG1, V domains shown)
VH: B2 VH with V46E, G55S, R56E
notes: also called charge variant of PR006004 (V46E, G55S, R56E)
B8: PR007201 (antibody, IgG1, V domains shown)
VH: B2 VH with V46E, G55S, R56S, A61E
notes: also called charge variant of PR006004 (V46E, G55S, R56S, A61E)
B9: PR007203 (antibody, IgG1, V domains shown)
VH: B2 VH with V46E, G55S, R56T, A61E
notes: also called charge variant of PR006004 (V46E, G55S, R56T, A61E)
B10: PR007195 (antibody, IgG1, V domains shown)
VH: B2 VH with V46E, G55S, R56D, A61E
notes: also called charge variant of PR006004 (V46E, G55S, R56D, A61E)

Numbering of substitutions follows the chain as printed. Names may count otherwise.

The target of one assay is T1, human B7-H4 on the cell surface (human, UniProt Q7Z7D3 25-282).
T1 construct: whole, on cells; also called hu B7-H4; CHO-K1/huB7-H4
T1 sequence (looked up): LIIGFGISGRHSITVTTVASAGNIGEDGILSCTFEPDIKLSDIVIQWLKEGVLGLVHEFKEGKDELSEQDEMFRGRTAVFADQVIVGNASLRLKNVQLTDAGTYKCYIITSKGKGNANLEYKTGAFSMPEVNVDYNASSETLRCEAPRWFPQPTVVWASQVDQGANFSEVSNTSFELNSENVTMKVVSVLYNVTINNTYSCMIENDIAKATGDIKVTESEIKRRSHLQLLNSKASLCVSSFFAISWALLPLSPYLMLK
Kind of assay: FACS, CHO-K1/hu B7-H4 cells. The protocol:
(§1) Briefly, cells were digested and resuspended in PBS containing 2% FBS, and the cell density was adjusted to 1×10⁶ cells/mL. The cells were seeded in a 96-well V-bottom plate (Corning, Cat #3894) at 100 μL/well, followed by the addition of test antibodies 3-fold serially diluted at a concentration that was 2 times the final concentration, each at 100 μL/well. The cells were incubated away from light at 4° C. for 2 h. Then, the cells in each well were rinsed twice with 100 μL of pre-cooled PBS and centrifuged at 500 g at 4° C. for 5 min, and then the supernatant was discarded. […] The cells in each well were then rinsed twice with 100 μL of pre-cooled PBS and centrifuged at 500 g at 4° C. for 5 min, and then the supernatant was discarded. Finally, the cells in each well were resuspended in 200 μL of pre-cooled PBS, and the fluorescence signal values were read using ACEA Novocyte3000.
For B1, the EC50 is 1.07 nM.

In the case of B2, it took 4.86 nM to reach a half-maximal effect (EC50).

The target of another assay is T2, mouse B7-H4 on the cell surface (mouse, UniProt Q7TSP5 25-257).
T2 construct: whole, on cells; also called m B7-H4; CHO-K1/mB7-H4
T2 sequence (looked up): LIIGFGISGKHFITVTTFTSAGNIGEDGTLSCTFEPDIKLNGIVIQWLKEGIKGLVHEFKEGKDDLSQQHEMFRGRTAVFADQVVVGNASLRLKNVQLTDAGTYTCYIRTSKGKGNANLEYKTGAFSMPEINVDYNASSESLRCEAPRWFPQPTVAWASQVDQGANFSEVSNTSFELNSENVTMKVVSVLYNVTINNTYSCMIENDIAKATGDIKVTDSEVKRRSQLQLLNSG
Briefly: FACS on CHO-K1/mB7-H4 cells.
In the case of B2, the binding result is listed as “no binding (tested: 100 nM)”.

For the molecule B3, the binding result is given as “no binding (tested: 100 nM)”.

The target in a further assay is T3, cynomolgus monkey B7-H4 on the cell surface (cynomolgus monkey, UniProt A0A2K5U6P5 25-282).
T3 construct: whole, on cells; also called cyno B7-H4; CHO-K1/cynoB7-H4
T3 sequence: T1 sequence (looked up) with L53I, F242L, S252A
Briefly: FACS, CHO-K1/cyno B7-H4 cells. The protocol:
as §1
For the molecule B1, the EC50 amounted to 0.432 nM and the “Maximum MFI” value worked out at 1.25e+06 MFI.

As to B4, the response was half-maximal at 0.721 nM (EC50) and the “Maximum MFI” value amounted to 1.26e+06 MFI.

Regarding B2, a half-maximal response (EC50) required 1.65 nM and the “Maximum MFI” value was found to be 1.57e+06 MFI.

As for B3, the EC50 was determined as 3.06 nM and the “Maximum MFI” value stood at 1.59e+06 MFI.

For another assay, the target named is T4, human B7-H4 (protein in solution, BLI) (human, UniProt Q7Z7D3 25-258, limits assumed).
T4 sequence (looked up): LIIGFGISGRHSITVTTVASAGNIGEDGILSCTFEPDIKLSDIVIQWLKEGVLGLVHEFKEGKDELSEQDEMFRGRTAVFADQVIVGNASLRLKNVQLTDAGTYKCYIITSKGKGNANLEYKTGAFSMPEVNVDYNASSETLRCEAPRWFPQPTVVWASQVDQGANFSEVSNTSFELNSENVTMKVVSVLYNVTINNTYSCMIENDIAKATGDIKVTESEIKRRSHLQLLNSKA
Briefly: BLI (Octet), antibody captured on AHC sensor, antigen in solution. The protocol: The binding kinetics between the antigen and the antibody was analyzed by the biolayer interferometry (BLI) technique using an Octet Red 96e molecular interaction analyzer (Fortebio).
When the affinity of the antigen for the antibody was determined, the rotation speed of the sensor was set at 1000 rpm/min. […] Finally, the AHC sensor was immersed in a 10 mM glycine-hydrochloric acid solution at pH 1.5 for regeneration to elute the proteins bound to the sensor.
When data analysis was performed using Octet Data Analysis software (Fortebio, version 11.0), 0 nM was taken as a reference well, and reference subtraction was performed; the “1:1 Global fitting” method was selected to fit the data, and the kinetics parameters of the binding of antigens to antigen-binding proteins were calculated, with kₒₙ(1/Ms) values, kdis(1/s) values, and KD(M) values obtained (see Table 3 and FIG. 2).
B1: binding was characterised by a dissociation constant (Kd) of 3.65 nM, the koff was found to be 0.00114 s⁻¹ and the kon was 312000 M⁻¹ s⁻¹.

As to B2, binding was put at a Kd of 1.89 nM, the koff was determined as 0.000396 s⁻¹ and the kon was found to be 210000 M⁻¹ s⁻¹.

The target in a further assay is T1, human B7-H4 on the cell surface. Briefly: FACS, CHO-K1/hu B7-H4 cells. The source holds these as a separate data set. The protocol:
as §1
Consider B2, for which the midpoint of the response, the EC50, lay at 2.75 nM and the “Maximum MFI” value was 1.63e+06 MFI.

Take B5: a half-maximal effect (EC50) was put at 5.39 nM and the “Maximum MFI” value came to 1.48e+06 MFI.

For B6, a half-maximal response (EC50) required 5.58 nM and the “Maximum MFI” value was 1.51e+06 MFI.

Take B7: the EC50 amounted to 3.72 nM and the “Maximum MFI” value worked out at 971000 MFI.

Turning to B8, the EC50 stood at 5.5 nM and the “Maximum MFI” value is 1.46e+06 MFI.

With B9, it took 5.41 nM to reach a half-maximal effect (EC50) and the “Maximum MFI” value is 1.53e+06 MFI.

Take B10: the EC50 was 5.65 nM and the “Maximum MFI” value was determined as 1.58e+06 MFI.

A further assay has the same target. Briefly: FACS, MDA-MB-468 cells. On the procedure: as §1
In the case of B1, the EC50 was found to be 0.162 nM and the “Maximum MFI” value was 149000 MFI.

On to B4, for which the EC50 came out at 0.244 nM and the “Maximum MFI” value amounted to 148000 MFI.

With B2, the response was half-maximal at 5.19 nM (EC50) and the “Maximum MFI” value was determined as 183000 MFI.

On to B3, for which the EC50 is 9.18 nM and the “Maximum MFI” value turned out to be 185000 MFI.

Another assay has as its target T2, mouse B7-H4 on the cell surface. Kind of assay: FACS, CHO-K1/m B7-H4 cells. On the procedure:
as §1
In turn, B1 came in with an EC50 of 0.403 nM.

For the molecule B4, the EC50 was 0.617 nM.

The values above are taken from patent publication US20250136694A1 (HARBOUR BIOMED SHANGHAI, published 2025).
